IntAct's records for PubMed 22322943

B1: Axin-2 (Mus musculus), O88566 (parent)
chain: MSSAVLVTLLPDPSSSFREDAPRPPVPGEEGETPPCQPSVGKVQSTKPMPVSSNARRNEDGLGEPEGRASPDSPLTRWTKSLHSLLGDQDGAYLFRTFLEREKCVDTLDFWFACNGFRQMNLKDTKTLRVAKAIYKRYIENNSVVSKQLKPATKTYIRDGIKKQQIGSVMFDQAQTEIQAVMEENAYQVFLTSDIYLEYVRSGGENTAYMSNGGLGSLKVLCGYLPTLNEEEEWTCADLKCKLSPTVVGLSSKTLRATASVRSTETAENGFRSFKRSDPVNPYHVGSGYVFAPATSANDSELSSDALTDDSMSMTDSSVDGVPPYRMGSKKQLQREMHRSVKANGQVSLPHFPRTHRLPKEMTPVEPAAFAAELISRLEKLKLELESRHSLEERLQQIREDEEKEGSEQALSSRDGAPVQHPLALLPSGSYEEDPQTILDDHLSRVLKTPGCQSPGVGRYSPRSRSPDHHHQHHHHQQCHTLLPTGGKLPPVAACPLLGGKSFLTKQTTKHVHHHYIHHHAVPKTKEEIEAEATQRVRCLCPGGTDYYCYSKCKSHPKAPEPLPGEQFCGSRGGTLPKRNAKGTEPGLALSARDGGMSSAAGAPQLPGEEGDRSQDVWQWMLESERQSKSKPHSAQSIRKSYPLESACAAPGERVSRHHLLGASGHSRSVARAHPFTQDPAMPPLTPPNTLAQLEEACRRLAEVSKPQKQRCCVASQQRDRNHSAAGQAGASPFANPSLAPEDHKEPKKLASVHALQASELVVTYFFCGEEIPYRRMLKAQSLTLGHFKEQLSKKGNYRYYFKKASDEFACGAVFEEIWDDETVLPMYEGRILGKVERID

Variants of: B1
Settings: with cdc20_human CDC20, Q12834
Chain of cdc20_human CDC20, Q12834 (Q12834 whole entry): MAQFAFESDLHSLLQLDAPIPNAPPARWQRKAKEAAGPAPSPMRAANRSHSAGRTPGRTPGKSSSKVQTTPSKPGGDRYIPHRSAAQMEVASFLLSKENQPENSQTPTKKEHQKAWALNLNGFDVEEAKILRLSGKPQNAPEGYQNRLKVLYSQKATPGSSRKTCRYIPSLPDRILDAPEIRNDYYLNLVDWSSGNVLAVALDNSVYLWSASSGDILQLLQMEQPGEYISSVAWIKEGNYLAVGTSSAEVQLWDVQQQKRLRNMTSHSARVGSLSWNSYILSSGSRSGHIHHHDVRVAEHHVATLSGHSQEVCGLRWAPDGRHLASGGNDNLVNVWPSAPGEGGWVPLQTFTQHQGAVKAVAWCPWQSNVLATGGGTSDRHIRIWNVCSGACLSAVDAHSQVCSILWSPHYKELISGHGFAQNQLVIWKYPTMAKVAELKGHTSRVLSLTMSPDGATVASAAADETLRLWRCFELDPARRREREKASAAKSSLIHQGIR

Variant	effect of a mutation on the interaction
L391A	decreasing interaction
R657A	decreasing interaction
R388A	decreasing interaction

Continued, values first:

effect of a mutation on the interaction	Variant
decreasing interaction	R776A
decreasing interaction	L660A
decreasing interaction	R775A
decreasing interaction	L778A

Variants of: B1
Settings: with cdc20_human CDC20, Q12834
Remark: another data set of the same source

effect of a mutation on the interaction	Variant
decreasing interaction	L99A
decreasing interaction	R96A
